# Data as given in the supplement of paper PMC10567573.
# B1: TCEB3B (parent)
# chain: STTALGDKQRKANESKGTRESWDS
# Variants of: B1
# Assay: protein stability index of a GFP-peptide fusion (GPS, HEK-293T) (PSI 1-6); higher = more stable
# Settings: c terminus: a fixed tail appended
# 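Further: lentivirally expressed fusions sorted by FACS into six bins by GFP to DsRed ratio, PSI derived from sequencing read proportions per bin multiplied by bin number.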
row,Variant,protein stability index
1,K8F,3.88
2,K8W,4.51
3,K8Y,3.11
4,K8N,4.15
5,K8S,4.31
6,K8V,4.17
7,K8H,3.86
8,K8L,4.8
9,K8T,3.46
10,K8I,3.98
11,K8P,3.96
12,K8D,4.59
13,K8C,4.12
14,K8Q,4.16
15,K8A,3.83
16,K8E,4.1
17,K8R,4.08
18,K8M,4.12
19,K8G,4.29
20,G17K,3.65
21,G17H,3.93
22,G17R,3.97
23,G17A,3.78
24,G17Q,3.88

row,Variant,protein stability index
1,G17W,3.51
2,G17N,3.74
3,G17T,3.98
4,G17E,4.78
5,G17C,3.8
6,G17M,3.43
7,G17P,4.42
8,G17L,3.21
9,G17S,3.71
10,G17V,3.55
11,G17Y,3.93
12,G17D,4.55
13,G17F,3.97
14,G17I,2.92
15,D7Q,3.15
16,D7E,4.36
17,D7P,3.5
18,D7K,4.05
19,D7M,3.2
20,D7I,3.23
21,D7H,3.58
22,D7L,2.88
23,D7S,3.43
24,D7C,3.57

row,Variant,protein stability index
1,D7R,3.88
2,D7F,3.24
3,D7Y,3
4,D7W,3.39
5,D7G,3.83
6,D7A,3.49
7,D7T,3.52
8,D7V,3.6
9,D7N,3.43
10,R19T,4.89
11,R19V,5.14
12,R19Y,3.37
13,R19N,4.58
14,R19D,5.16
15,R19W,4.17
16,R19M,4.8
17,R19Q,4.49
18,R19I,4.58
19,R19C,4.67
20,R19E,5.27
21,R19P,4.84
22,R19L,4.5
23,R19S,4.94
24,R19A,4.95

row,Variant,protein stability index
1,R19F,3.86
2,R19K,4.21
3,R19H,4.4
4,R19G,4.68
5,A12K,3.13
6,A12F,3.76
7,A12R,3.56
8,A12D,4.36
9,A12W,3.34
10,A12V,3.88
11,A12L,4.03
12,A12H,3.88
13,A12T,3.59
14,A12P,4.17
15,A12G,4.21
16,A12S,4.3
17,A12Q,3.92
18,A12Y,3.4
19,A12N,4.2
20,A12M,3.83
21,A12E,4.49
22,A12C,3.99
23,A12I,3.63
24,K11L,3.65

row,Variant,protein stability index
1,K11A,4.3
2,K11W,3.99
3,K11F,3.79
4,K11S,4.03
5,K11V,4.07
6,K11H,4.29
7,K11G,3.88
8,K11E,4.72
9,K11P,4.23
10,K11Y,4
11,K11Q,3.79
12,K11R,3.57
13,K11D,4.32
14,K11N,4.39
15,K11T,4.22
16,K11M,3.86
17,K11I,4.02
18,K11C,4.53
19,T18R,3.76
20,T18S,4
21,T18F,3.46
22,T18L,3.14
23,T18H,3.79
24,T18K,3.61

row,Variant,protein stability index
1,T18Y,3.8
2,T18D,4.05
3,T18V,4.55
4,T18G,3.81
5,T18M,3.51
6,T18C,4.19
7,T18P,3.22
8,T18N,4.09
9,T18I,3.31
10,T18Q,4.03
11,T18E,4.17
12,T18W,3
13,T18A,4.15
14,L5C,3.44
15,L5T,4.63
16,L5V,4.08
17,L5K,4.37
18,L5E,4.57
19,L5A,4.37
20,L5F,3.29
21,L5I,3.17
22,L5S,4.25
23,L5H,4.25
24,L5R,4.03

row,Variant,protein stability index
1,L5G,4.11
2,L5M,3.88
3,L5Q,4.57
4,L5D,4.22
5,L5W,3.64
6,L5Y,3.37
7,L5P,4.37
8,L5N,4.14
9,N13P,3.83
10,N13D,4.64
11,N13T,3.78
12,N13R,3.12
13,N13Y,3.22
14,N13W,3.09
15,N13M,3.7
16,N13I,3.59
17,N13K,3.65
18,N13G,3.45
19,N13H,3.35
20,N13Q,4.1
21,N13S,4.14
22,N13V,4.12
23,N13L,3.67
24,N13F,3.67

row,Variant,protein stability index
1,N13C,3.83
2,N13E,4.87
3,N13A,3.91
4,A4V,3.96
5,A4L,3.49
6,A4D,4.14
7,A4Q,3.9
8,A4H,3.82
9,A4S,3.81
10,A4Y,3.36
11,A4E,4.14
12,A4M,3.54
13,A4G,3.75
14,A4N,4.18
15,A4T,4.46
16,A4P,3.88
17,A4K,3.78
18,A4W,3.62
19,A4C,3.86
20,A4R,3.34
21,A4F,3.56
22,A4I,3.65
23,E14K,3.33
24,E14C,2.77

row,Variant,protein stability index
1,E14V,3.34
2,E14S,3.82
3,E14F,3
4,E14L,3.9
5,E14M,3.65
6,E14P,3.19
7,E14R,3.61
8,E14Q,3.54
9,E14W,2.73
10,E14G,3.85
11,E14T,3.42
12,E14N,4.06
13,E14A,3.15
14,E14D,3.89
15,E14I,3.81
16,E14Y,2.95
17,E14H,3.88
18,E20M,4.54
19,E20H,4.89
20,E20I,4
21,E20L,4.6
22,E20C,3.66
23,E20R,4.2
24,E20P,4.89

row,Variant,protein stability index
1,E20F,4.6
2,E20Q,4.38
3,E20K,5.19
4,E20D,4.76
5,E20A,4.82
6,E20N,4.68
7,E20G,5
8,S15L,3.52
9,S15W,3.72
10,S15V,3.38
11,S15K,4
12,S15G,4.2
13,S15Q,4.03
14,S15C,3.58
15,S15I,3.71
16,S15E,4.97
17,S15Y,3.64
18,S15F,3.94
19,S15D,4.93
20,S15M,3.98
21,S15R,3.65
22,S15N,4.24
23,S15H,3.93
24,S15T,3.38

row,Variant,protein stability index
1,S15A,4.69
2,S15P,4.34
3,Q9K,4.09
4,Q9E,3.71
5,Q9Y,3.64
6,Q9R,3.52
7,Q9M,4.08
8,Q9F,3.29
9,Q9C,3.37
10,Q9N,3.47
11,Q9H,4.26
12,Q9S,3.71
13,Q9W,2.45
14,Q9A,3.38
15,Q9D,3.92
16,Q9V,3.85
17,Q9I,3.72
18,Q9P,3.53
19,Q9T,4.14
20,Q9L,3.67
21,Q9G,3.62
22,T3V,4.36
23,T3P,4.02
24,T3L,3.83

row,Variant,protein stability index
1,T3Q,4.35
2,T3W,3.57
3,T3F,3.32
4,T3G,4.22
5,T3K,3.56
6,T3N,3.77
7,T3M,4.1
8,T3S,3.57
9,T3R,3.89
10,T3H,4.21
11,T3E,4.33
12,T3Y,3.77
13,T3I,3.72
14,R10H,4.24
15,R10M,4.03
16,R10N,4.14
17,R10T,4.33
18,R10S,4.26
19,R10P,4.43
20,R10V,3.54
21,R10Q,4.56
22,R10E,4.57
23,R10Y,4.26
24,R10W,3.46

row,Variant,protein stability index
1,R10I,3.6
2,R10D,4.76
3,R10K,4.25
4,R10G,4.55
5,R10C,3.53
6,R10A,4.13
7,R10F,4.15
8,R10L,4.28
9,K16Y,3.6
10,K16R,4.04
11,K16T,4.24
12,K16C,2.97
13,K16I,3.95
14,K16N,3.97
15,K16E,5
16,K16L,4.3
17,K16Q,4.24
18,K16F,3.8
19,K16G,4.52
20,K16W,3.13
21,K16S,4.42
22,K16M,3.44
23,K16A,4.45
24,K16V,4.53

row,Variant,protein stability index
1,K16H,4.14
2,K16D,4.96
3,K16P,4.29
4,G6E,4.31
5,G6T,3.81
6,G6L,4.08
7,G6A,3.65
8,G6F,3.12
9,G6Y,3.68
10,G6H,3.78
11,G6M,3.93
12,G6V,2.98
13,G6N,4.38
14,G6C,3.74
15,G6S,3.85
16,G6R,4.07
17,G6D,4.12
18,G6I,3.59
19,G6Q,3.83
20,G6W,3.29
21,G6K,3.3
22,G6P,4.34
